Reference: patent publication US20090018093
Like-named read-outs stand apart in the source and are kept apart here.

System: Immunoglobulin E (IgE) (Homo sapiens), P01854-1
Test: filter
[1] = 2'-OMe/2'-deoxy mix, 3:21 pair changed, DPBS Mg/Ca, 0.1 mg/mL BSA, RT

Immunoglobulin E (IgE) (Homo sapiens), P01854-1, sequence (P01854 other isoform, or with tags, fused parts or gaps): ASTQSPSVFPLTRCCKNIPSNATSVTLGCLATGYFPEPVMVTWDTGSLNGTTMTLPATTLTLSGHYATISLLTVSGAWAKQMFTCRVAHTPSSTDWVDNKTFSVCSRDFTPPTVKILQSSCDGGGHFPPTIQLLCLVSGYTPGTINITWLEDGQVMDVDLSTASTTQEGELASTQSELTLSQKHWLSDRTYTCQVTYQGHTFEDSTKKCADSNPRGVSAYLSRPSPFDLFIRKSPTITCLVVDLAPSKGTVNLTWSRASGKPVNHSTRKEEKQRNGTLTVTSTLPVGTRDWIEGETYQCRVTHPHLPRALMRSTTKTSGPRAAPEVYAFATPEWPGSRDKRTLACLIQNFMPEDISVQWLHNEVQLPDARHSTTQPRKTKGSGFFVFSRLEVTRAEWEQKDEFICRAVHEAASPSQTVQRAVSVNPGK

AGCCUGGGGACCCAUGGGGGGCU [ARC3266]
Kd (ARC1666 pattern with 2'-OMe G8 and 2'-OMe I16, 3' idT [inosine (written G) at 16 (2'-OMe I),18,20 (dI), 2'-OMe 1-5,7,8,10-17,22,23, deoxy 6,9,18-21, PS 8/9,15/16,16/17,18/19,20/21, 3' inverted dT left out], dPBS Ca/Mg + BSA, RT): 1.3 nM

AGCCUGGGGACCCAUGGGGGGCU [ARC3270]
Kd (ARC1666 pattern with 2'-OMe G9 and extra PS after G21, C22 and U23, 3' idT [dI (written G) at 16,18,20, 2'-OMe 1-5,7,9,10-15,17,22,23, deoxy 6,8,16,18-21, PS 8/9,15/16,16/17,18/19,20/21,21/22,22/23,23/idT, 3' inverted dT left out], dPBS Ca/Mg + BSA, RT): 0.04 nM

AGCCUGGGNGACCCAUNNNGNNGNNGCUN [ARC3264]
Kd (ARC1666 chemistry with 2'-OMe I16, 3' idT, DPBS Mg/Ca, BSA, RT): 0.36 nM

AGCCUGGGNGACCCAUNNNGNNGNNGCUN [ARC3265]
Kd (ARC1666 chemistry with 2'-OMe G8,G9, 3' idT, DPBS Mg/Ca, BSA, RT): 0.29 nM

AGCCUGGGNGACCCAUNNNGNNGNNGCUN [ARC3267]
Kd (ARC1666 chemistry with 2'-OMe G9,I16, 3' idT, DPBS Mg/Ca, BSA, RT): 0.2 nM

AGCCUGGGNGACCCAUNNNGNNGNNGCUN [ARC3268]
Kd (ARC1666 chemistry with 2'-OMe G8,G9,I16, 3' idT, DPBS Mg/Ca, BSA, RT): 0.6 nM

AGCCUGGGNGACCCAUNNNGNNGNNGCUNN [ARC2369]
Kd (ARC1666 pattern, 3'-NH-PEG20K, no idT, dPBS Ca/Mg + BSA, RT): 0.03 nM

AGCCUGGGNGACCCAUNNNGNNGNNGNCNUN [ARC2341]
Kd (ARC1666 chemistry + PS 21-22,22-23, 3' idT, DPBS Mg/Ca, BSA, RT): 0.05 nM

AGCCUGGGNGACCCAUNNNGNNGNNGNCNUNN [ARC2342]
Kd (ARC1666 chemistry + PS 21-22,22-23,23-idT, 3' idT, second independent measurement 0.04 nM): 0.19 nM

AGCCUGGGNGACCCAUNNNGNNGNNGNCNUNN [ARC3269]
Kd (ARC2342 chemistry with 2'-OMe G8, 3' idT, DPBS Mg/Ca, BSA, RT): 0.52 nM

AGCCUGGGNGACCCAUNNNGNNGNNGNCNUNN [ARC3271]
Kd (ARC2342 chemistry with 2'-OMe I16, 3' idT, DPBS Mg/Ca, BSA, RT): 0.23 nM

AGCCUGGGNGACCCAUNNNGNNGNNGNCNUNN [ARC3272]
Kd (ARC2342 chemistry with 2'-OMe G8,G9, 3' idT, DPBS Mg/Ca, BSA, RT): 0.12 nM

AGCCUGGGNGACCCAUNNNGNNGNNGNCNUNN [ARC3273]
Kd (ARC2342 chemistry with 2'-OMe G8,I16, 3' idT, DPBS Mg/Ca, BSA, RT): 0.86 nM

AGCCUGGGNGACCCAUNNNGNNGNNGNCNUNN [ARC3274]
Kd (ARC2342 chemistry with 2'-OMe G9,I16, 3' idT, DPBS Mg/Ca, BSA, RT): 0.12 nM

AGCCUGGGNGACCCAUNNNGNNGNNGNCNUNN [ARC3275]
Kd (ARC2342 chemistry with 2'-OMe G8,G9,I16, 3' idT, DPBS Mg/Ca, BSA, RT): 0.67 nM

AGCCUGGGNGACCCAUNNNGNNGNNGNCUN [ARC2340]
Kd (ARC1666 pattern plus PS between G21 and C22, 3' idT, dPBS Ca/Mg + BSA, RT): 0.08 nM

AGCCUGGGNGACCCAUNNNGNNGNNNGCUN [ARC2983]
Kd (ARC1666 chemistry + PS 19-20, 3' idT, DPBS Mg/Ca, BSA, RT): 0.02 nM

AGCCUGGGNGACCCAUNNNGNNNGNNGCUN [ARC2982]
Kd (ARC1666 chemistry + PS 17-18, 3' idT, DPBS Mg/Ca, BSA, RT): 0.03 nM

AGCCUGGGNGACCCNAUNNNGNNGNNGCUN [ARC2980]
Kd (ARC1666 chemistry + PS 13-14, 3' idT, DPBS Mg/Ca, BSA, RT): 0.04 nM

AGCCUGGGNGACCNCAUNNNGNNGNNGCUN [ARC2979]
Kd (ARC1666 chemistry + PS 12-13, 3' idT, DPBS Mg/Ca, BSA, RT): 0.05 nM

AGCCUGGGNGACNCCAUNNNGNNGNNGCUN [ARC2978]
Kd (ARC1666 chemistry + PS 11-12, 3' idT, DPBS Mg/Ca, BSA, RT): 0.05 nM

AGCCUGGGNGANCCCAUNNNGNNGNNGCUN [ARC2977]
Kd (ARC1666 chemistry + PS 10-11, 3' idT, DPBS Mg/Ca, BSA, RT): 0.05 nM

AGCCUGGGNGNACCCAUNNNGNNGNNGCUN [ARC2976]
Kd (ARC1666 pattern plus PS between G9 and A10, 3' idT, dPBS Ca/Mg + BSA, RT): 0.3 nM

AGCCUGGNGNGACCCAUNNNGNNGNNGCUN [ARC2975]
Kd (ARC1666 chemistry + PS 7-8, 3' idT, DPBS Mg/Ca, BSA, RT): 0.04 nM

AGCCUGNGGNGACCCAUNNNGNNGNNGCUN [ARC2974]
Kd (ARC1666 chemistry + PS 6-7, 3' idT, DPBS Mg/Ca, BSA, RT): 0.07 nM

AGCCUNGGGNGACCCAUNNNGNNGNNGCUN [ARC2973]
Kd (ARC1666 chemistry + PS 5-6, 3' idT, DPBS Mg/Ca, BSA, RT): 0.05 nM

AGCNCUGGGNGACCCAUNNNGNNGNNGCUN [ARC2971]
Kd (ARC1666 chemistry + PS 3-4, 3' idT, DPBS Mg/Ca, BSA, RT): 0.06 nM

AGGCUGGGGACCCAUGGGGGCCU [ARC1244]
Kd (dRmY, dPBS Ca/Mg + BSA, RT): 450 nM

AGGCUGGGGACCCAUGGGGGCCU [ARC1245]
Kd [1]: 198 nM

AGNCCUGGGNGACCCAUNNNGNNGNNGCUN [ARC2970]
Kd (ARC1666 chemistry + PS 2-3, 3' idT, DPBS Mg/Ca, BSA, RT): 0.04 nM

AGUAGCCUGGGGACCCAUGGGGGGCUACU [ARC3276]
Kd (mAmGmUmAmGmCmCmUdGmGdG-s-dGmAmCmCmCmAmU-s-dI-s-mGdI-s-dGdI-s-dGmCmUmAmCmU [dI (written G) at 19,21,23, 2'-OMe 1-8,10,13-18,20,25-29, deoxy 9,11,12,19,21-24, PS 11/12,18/19,19/20,21/22,23/24, 3' inverted dT left out], dPBS Ca/Mg + BSA, RT): 0.03 nM

AGUCUGGGGACCCAUGGGGGACU [ARC1246]
Kd [1]: 34 nM

AGUCUGGGGACCCAUGGGGGACU [ARC1247]
Kd [1]: 192 nM

ANGCCUGGGNGACCCAUNNNGNNGNNGCUN [ARC2969]
Kd (ARC1666 chemistry + PS 1-2, 3' idT, DPBS Mg/Ca, BSA, RT): 0.09 nM

GCGGGCAAATTCATCCGTCCCTCCTAGTGGTTTGCCC [DNA clone SEQ 147]
Kd: 0.5 nM

GGAAUCAUACACAAGACGUCAGUAAGAUUGAGUGUAUGGUU [rRfY minimer SEQ 96]
Kd (2'-F C and U, KD2 39.7 nM, 1xSHMCK + tRNA): 0.365 nM

GGAAUCAUACACAAGACGUCAGUAAGAUUGAGUGUAUGGUUCC [rRfY minimer SEQ 95]
Kd (2'-F C and U, KD2 117.2 nM, 1xSHMCK + tRNA): 4.5 nM

GGAAUCAUACACAAGACGUCGCCAGAUUGAGUGUCGUGGUU [rRfY minimer SEQ 92]
Kd (2'-F C and U, KD2 22.0 nM, 1xSHMCK + tRNA): 0.25 nM

GGAUCCGAGGGUGGGCAAUAGGCUCACAAGGGUCC [rRfY minimer SEQ 94]
Kd (2'-F C and U, KD2 26.5 nM, 1xSHMCK + tRNA): 1.01 nM

GGGAAAAGCGAAUCAUACACAAGACGUGAGCAUAUCAUUGAGUGUAGUGGUUCCGGAGUAAGUCGCUCCGCCAGAGACCAACCGAGAA [rRfY clone SEQ 15]
Kd (2'-F C and U, biphasic, KD2 19.0 nM, 1xSHMCK + tRNA, RT): 0.115 nM

GGGAAAAGCGAAUCAUACACAAGAGUGCAAGAAGUGCAUUGCUGUGUCUGGUUCUUGGCGAUGUGCUCCGCCAGAGACCAACCGAGAA [rRfY clone SEQ 17]
binding signal (2'-F C,U, ratio bound +/- 20 nM IgE): 0.76

GGGAGAGGAGAGAACGUUCUACAAGCAGUUCUGGGGACCCAUGGGGGAAGUGCGCUGUCGAUCGAUCGAUCGAUG [ARC1992]
Kd (dRmY: 2'-deoxy A,G, 2'-OMe C,U, error 8, dPBS Ca/Mg + BSA, RT): 10 nM

GGGAGAGGAGAGAACGUUCUACACUCUGGGGACCCGUGGGGGAGUGCAGCAACGCUGUCGAUCGAUCGAUCGAUG [ARC2005]
Kd (dRmY: 2'-deoxy A,G, 2'-OMe C,U, error 3, dPBS Ca/Mg + BSA, RT): 5 nM

GGGAGAGGAGAGAACGUUCUACAGGCAGUUCUGGGGACCCAUGGGGGAAGUGCGCUGUCGAUCGAUCGAUCGAUG [ARC1991]
Kd (dRmY: 2'-deoxy A,G, 2'-OMe C,U, error 2, dPBS Ca/Mg + 0.1 mg/mL BSA, RT, 87.7 nM with 1 mg/mL tRNA + ssDNA competitor (p280)): 2 nM

GGGAGAGGAGAGAACGUUCUACAUUGUGCUCCUGGGGCCCAGUGGGGAGCCACGCUGUCGAUCGAUCGAUCGAUG [ARC1995]
Kd (dRmY: 2'-deoxy A,G, 2'-OMe C,U, error 2, dPBS Ca/Mg + BSA, RT): 4 nM

GGGAGAGGAGAGAACGUUCUACCAACGGCAUCCUGGGCCCCACAGGGGAUGUCGCUGUCGAUCGAUCGAUCGAUG [ARC2002]
Kd (dRmY: 2'-deoxy A,G, 2'-OMe C,U, error 6, dPBS Ca/Mg + BSA, RT): 8 nM

GGGAGAGGAGAGAACGUUCUACCCGCAGCAUAGCCUGGGGACCCAUGGGGGGCGCUGUCGAUCGAUCGAUCGAUG [ARC1994]
Kd (dRmY: 2'-deoxy A,G, 2'-OMe C,U, error 5, dPBS Ca/Mg + BSA, RT, 109.7 nM with tRNA + ssDNA competitor (p280)): 5 nM

GGGAGAGGAGAGAACGUUCUACGAGCAGCCCUGGGGCCCGGAGGGGGAUGGUCGCUGUCGAUCGAUCGAUCGAUG [ARC1993]
Kd (dRmY: 2'-deoxy A,G, 2'-OMe C,U, error 4, dPBS Ca/Mg + BSA, RT): 9 nM

GGGAGAGGAGAGAACGUUCUACGAUCUGGGCGAGCCAGUCUGACUGAGGAAGCGCUGUCGAUCGAUCGAUCGAUGAAGGGCG [rRmY clone SEQ 56]
Kd (2'-OMe C,U, 2'-OH A,G, DPBS, 0.1 mg/mL tRNA, RT): 500 nM

GGGAGAGGAGAGAACGUUCUACGCAGCGCAUCUGGGGACCCAAGAGGGGAUUCGCUGUCGAUCGAUCGAUCGAUG [ARC2001]
Kd (dRmY: 2'-deoxy A,G, 2'-OMe C,U, error 0.1, dPBS Ca/Mg + BSA, RT): 18 nM

GGGCAACTTTATCCGTTCCTCTTAGTGGGTTGCCCC [DNA clone SEQ 139]
Kd: 0.4 nM

GGGCTACTTTATCCGTCCCTCCTAGTGGGTAGCCCC [DNA clone SEQ 140]
Kd: 0.2 nM

GGGCTACTTTATCCGTTCCTCCTAGTGGGTAGCCCT [ARC1306]
Kd (2'-OMe stem block as printed in Table 18, 3' idT [2'-OMe: stem block (exact positions not given in the material), 36 = 3' inverted dT], DPBS Mg/Ca, BSA): 14 nM

GGGGCACATTCATCCGTCCCTCCTAGTGGTGTGCTCC [DNA clone SEQ 128]
Kd: 0.5 nM

GGGGCACATTTATCCGTCCCTCCTAGTGGTGTGCCCC [DNA clone SEQ 119]
Kd: 0.6 nM

GGGGCAGCTTTATCCGTACCTCCCAGTGGGCTGCCCC [ARC474]
Kd: 0.7 nM

GGGGCAGCTTTATCCGTTCCTCCTAGTGGGCTGCCTC [DNA clone SEQ 131]
Kd: 0.3 nM
